PMC5097169, “Acetylation of histone H4 lysine 5 and 12 is required for CENP-A deposition into centromeres” (Nature Communications, 2016)

Biological target: T1, Flag RbAp46 (Xenopus, recombinant) (Xenopus, UniProt Q8AVH1 1-425)
T1 construct: RbAp46, Xenopus (xRbAp46); also called xRbAp46
Experiment: pull-down; GST-histone tails coupled to NHS Sepharose (20 μl resin) with 0.7 μg Hat1, RbAp46 or RbAp48, or RbAp46 with Hat1, in 150 μl 20 mM K-HEPES pH 7.4, 50 mM KCl, 0.1% Tween-20, 5 mM DTT; 2 h at 4 °C; washes with 300 mM KCl; coomassie-stained gel
Settings: both partners purified

T1 sequence (Q8AVH1 whole entry): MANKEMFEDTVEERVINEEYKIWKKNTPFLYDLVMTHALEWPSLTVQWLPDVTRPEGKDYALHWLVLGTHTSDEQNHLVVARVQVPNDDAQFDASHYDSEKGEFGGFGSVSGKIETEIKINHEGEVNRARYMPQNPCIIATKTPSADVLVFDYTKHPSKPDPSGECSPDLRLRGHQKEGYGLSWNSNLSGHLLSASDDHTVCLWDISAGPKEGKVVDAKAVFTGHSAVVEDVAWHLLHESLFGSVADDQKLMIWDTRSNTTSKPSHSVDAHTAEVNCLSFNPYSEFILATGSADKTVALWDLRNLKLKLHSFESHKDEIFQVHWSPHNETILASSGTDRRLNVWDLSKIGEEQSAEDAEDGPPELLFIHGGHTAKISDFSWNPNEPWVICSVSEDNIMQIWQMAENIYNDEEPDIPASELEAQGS

binding result: binds
B1: GST fusion to Xenopus laevis CENP-A amino terminus (amino acids 1–50) (domain or fragment, UniProt Q569M3 1-50, looked up)
chain: MRPGSTPPSRRKSRPPRRVSPPLPTTSRTSPRRPHAQQQRRASRASPKKR
notes: CENP-A, Xenopus laevis, amino terminus, amino acids 1–50, in pGEX-6P-1; also called GST-CENP-A N-terminal tail; xCENP-A N-terminus
